*1 amine or outer side, *2 acyl side, *3 side chain or, on linkers, in order; H or OH if unused. Side-chain parts run from the residue outwards. The star is where a group is joined. C18 diacid = O=C(O)CCCCCCCCCCCCCCCCC(=O)*; γGlu = O=C(O)[C@H](CCC(=O)[*:2])N[*:1]; Isovaleryl = CC(C)CC(=O)*; Ahx = NCCCCCC(=O)O
T1: human NPY2 receptor (human, UniProt P49146 1-381)
T1 construct: whole, on cells; also called hNPY2-R; hNPY2R
T1 sequence (looked up): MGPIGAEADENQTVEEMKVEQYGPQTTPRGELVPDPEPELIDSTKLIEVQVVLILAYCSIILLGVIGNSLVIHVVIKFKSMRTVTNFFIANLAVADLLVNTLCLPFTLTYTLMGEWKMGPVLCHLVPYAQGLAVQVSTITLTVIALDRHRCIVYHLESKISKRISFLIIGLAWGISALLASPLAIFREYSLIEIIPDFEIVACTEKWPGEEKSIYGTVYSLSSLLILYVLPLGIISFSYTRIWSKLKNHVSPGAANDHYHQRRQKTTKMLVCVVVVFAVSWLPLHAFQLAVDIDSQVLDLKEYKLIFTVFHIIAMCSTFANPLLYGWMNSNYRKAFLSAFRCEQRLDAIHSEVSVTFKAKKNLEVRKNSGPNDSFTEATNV

B1: Compound 30 (peptide)
peptide: Isovaleryl-APEK([Ahx-γGlu-C18 diacid])PPADATPEELQRYYVSLRHYYNWLTRQRY-NH2
SMILES: CC(C)CC(=O)N[C@@H](C)C(=O)N1CCC[C@H]1C(=O)N[C@@H](CCC(=O)O)C(=O)N[C@@H](CCCCNC(=O)CCCCCNC(=O)CC[C@H](NC(=O)CCCCCCCCCCCCCCCCC(=O)O)C(=O)O)C(=O)N1CCC[C@H]1C(=O)N1CCC[C@H]1C(=O)N[C@@H](C)C(=O)N[C@@H](CC(=O)O)C(=O)N[C@@H](C)C(=O)N[C@H](C(=O)N1CCC[C@H]1C(=O)N[C@@H](CCC(=O)O)C(=O)N[C@@H](CCC(=O)O)C(=O)N[C@@H](CC(C)C)C(=O)N[C@@H](CCC(N)=O)C(=O)N[C@@H](CCCNC(=N)N)C(=O)N[C@@H](Cc1ccc(O)cc1)C(=O)N[C@@H](Cc1ccc(O)cc1)C(=O)N[C@H](C(=O)N[C@@H](CO)C(=O)N[C@@H](CC(C)C)C(=O)N[C@@H](CCCNC(=N)N)C(=O)N[C@@H](Cc1c[nH]cn1)C(=O)N[C@@H](Cc1ccc(O)cc1)C(=O)N[C@@H](Cc1ccc(O)cc1)C(=O)N[C@@H](CC(N)=O)C(=O)N[C@@H](Cc1c[nH]c2ccccc12)C(=O)N[C@@H](CC(C)C)C(=O)N[C@H](C(=O)N[C@@H](CCCNC(=N)N)C(=O)N[C@@H](CCC(N)=O)C(=O)N[C@@H](CCCNC(=N)N)C(=O)N[C@@H](Cc1ccc(O)cc1)C(N)=O)[C@@H](C)O)C(C)C)[C@@H](C)O
B2: Compound 32 (peptide)
peptide: Isovaleryl-APAK([Ahx-γGlu-C18 diacid])PEEDASPEELQRYYVSLRHQYNWLTRQRY-NH2
SMILES: CC(C)CC(=O)N[C@@H](C)C(=O)N1CCC[C@H]1C(=O)N[C@@H](C)C(=O)N[C@@H](CCCCNC(=O)CCCCCNC(=O)CC[C@H](NC(=O)CCCCCCCCCCCCCCCCC(=O)O)C(=O)O)C(=O)N1CCC[C@H]1C(=O)N[C@@H](CCC(=O)O)C(=O)N[C@@H](CCC(=O)O)C(=O)N[C@@H](CC(=O)O)C(=O)N[C@@H](C)C(=O)N[C@@H](CO)C(=O)N1CCC[C@H]1C(=O)N[C@@H](CCC(=O)O)C(=O)N[C@@H](CCC(=O)O)C(=O)N[C@@H](CC(C)C)C(=O)N[C@@H](CCC(N)=O)C(=O)N[C@@H](CCCNC(=N)N)C(=O)N[C@@H](Cc1ccc(O)cc1)C(=O)N[C@@H](Cc1ccc(O)cc1)C(=O)N[C@H](C(=O)N[C@@H](CO)C(=O)N[C@@H](CC(C)C)C(=O)N[C@@H](CCCNC(=N)N)C(=O)N[C@@H](Cc1c[nH]cn1)C(=O)N[C@@H](CCC(N)=O)C(=O)N[C@@H](Cc1ccc(O)cc1)C(=O)N[C@@H](CC(N)=O)C(=O)N[C@@H](Cc1c[nH]c2ccccc12)C(=O)N[C@@H](CC(C)C)C(=O)N[C@H](C(=O)N[C@@H](CCCNC(=N)N)C(=O)N[C@@H](CCC(N)=O)C(=O)N[C@@H](CCCNC(=N)N)C(=O)N[C@@H](Cc1ccc(O)cc1)C(N)=O)[C@@H](C)O)C(C)C
B3: Compound 31 (peptide)
peptide: Isovaleryl-APEK([Ahx-γGlu-C18 diacid])PEEDATPEELQPYYVSLRHYYNWLTRQRY-NH2
SMILES: CC(C)CC(=O)N[C@@H](C)C(=O)N1CCC[C@H]1C(=O)N[C@@H](CCC(=O)O)C(=O)N[C@@H](CCCCNC(=O)CCCCCNC(=O)CC[C@H](NC(=O)CCCCCCCCCCCCCCCCC(=O)O)C(=O)O)C(=O)N1CCC[C@H]1C(=O)N[C@@H](CCC(=O)O)C(=O)N[C@@H](CCC(=O)O)C(=O)N[C@@H](CC(=O)O)C(=O)N[C@@H](C)C(=O)N[C@H](C(=O)N1CCC[C@H]1C(=O)N[C@@H](CCC(=O)O)C(=O)N[C@@H](CCC(=O)O)C(=O)N[C@@H](CC(C)C)C(=O)N[C@@H](CCC(N)=O)C(=O)N1CCC[C@H]1C(=O)N[C@@H](Cc1ccc(O)cc1)C(=O)N[C@@H](Cc1ccc(O)cc1)C(=O)N[C@H](C(=O)N[C@@H](CO)C(=O)N[C@@H](CC(C)C)C(=O)N[C@@H](CCCNC(=N)N)C(=O)N[C@@H](Cc1c[nH]cn1)C(=O)N[C@@H](Cc1ccc(O)cc1)C(=O)N[C@@H](Cc1ccc(O)cc1)C(=O)N[C@@H](CC(N)=O)C(=O)N[C@@H](Cc1c[nH]c2ccccc12)C(=O)N[C@@H](CC(C)C)C(=O)N[C@H](C(=O)N[C@@H](CCCNC(=N)N)C(=O)N[C@@H](CCC(N)=O)C(=O)N[C@@H](CCCNC(=N)N)C(=O)N[C@@H](Cc1ccc(O)cc1)C(N)=O)[C@@H](C)O)C(C)C)[C@@H](C)O
B4: Compound 34 (peptide)
peptide: Isovaleryl-APEK([Ahx-γGlu-C18 diacid])PEEDASAEELQQYYVSLRHYYNWLTRQRY-NH2
SMILES: CC(C)CC(=O)N[C@@H](C)C(=O)N1CCC[C@H]1C(=O)N[C@@H](CCC(=O)O)C(=O)N[C@@H](CCCCNC(=O)CCCCCNC(=O)CC[C@H](NC(=O)CCCCCCCCCCCCCCCCC(=O)O)C(=O)O)C(=O)N1CCC[C@H]1C(=O)N[C@@H](CCC(=O)O)C(=O)N[C@@H](CCC(=O)O)C(=O)N[C@@H](CC(=O)O)C(=O)N[C@@H](C)C(=O)N[C@@H](CO)C(=O)N[C@@H](C)C(=O)N[C@@H](CCC(=O)O)C(=O)N[C@@H](CCC(=O)O)C(=O)N[C@@H](CC(C)C)C(=O)N[C@@H](CCC(N)=O)C(=O)N[C@@H](CCC(N)=O)C(=O)N[C@@H](Cc1ccc(O)cc1)C(=O)N[C@@H](Cc1ccc(O)cc1)C(=O)N[C@H](C(=O)N[C@@H](CO)C(=O)N[C@@H](CC(C)C)C(=O)N[C@@H](CCCNC(=N)N)C(=O)N[C@@H](Cc1c[nH]cn1)C(=O)N[C@@H](Cc1ccc(O)cc1)C(=O)N[C@@H](Cc1ccc(O)cc1)C(=O)N[C@@H](CC(N)=O)C(=O)N[C@@H](Cc1c[nH]c2ccccc12)C(=O)N[C@@H](CC(C)C)C(=O)N[C@H](C(=O)N[C@@H](CCCNC(=N)N)C(=O)N[C@@H](CCC(N)=O)C(=O)N[C@@H](CCCNC(=N)N)C(=O)N[C@@H](Cc1ccc(O)cc1)C(N)=O)[C@@H](C)O)C(C)C
B5: Compound 35 (peptide)
peptide: Isovaleryl-APAK([Ahx-γGlu-C18 diacid])PEEAATPEELQRYYVSLRHYYNWLTRQRY-NH2
SMILES: CC(C)CC(=O)N[C@@H](C)C(=O)N1CCC[C@H]1C(=O)N[C@@H](C)C(=O)N[C@@H](CCCCNC(=O)CCCCCNC(=O)CC[C@H](NC(=O)CCCCCCCCCCCCCCCCC(=O)O)C(=O)O)C(=O)N1CCC[C@H]1C(=O)N[C@@H](CCC(=O)O)C(=O)N[C@@H](CCC(=O)O)C(=O)N[C@@H](C)C(=O)N[C@@H](C)C(=O)N[C@H](C(=O)N1CCC[C@H]1C(=O)N[C@@H](CCC(=O)O)C(=O)N[C@@H](CCC(=O)O)C(=O)N[C@@H](CC(C)C)C(=O)N[C@@H](CCC(N)=O)C(=O)N[C@@H](CCCNC(=N)N)C(=O)N[C@@H](Cc1ccc(O)cc1)C(=O)N[C@@H](Cc1ccc(O)cc1)C(=O)N[C@H](C(=O)N[C@@H](CO)C(=O)N[C@@H](CC(C)C)C(=O)N[C@@H](CCCNC(=N)N)C(=O)N[C@@H](Cc1c[nH]cn1)C(=O)N[C@@H](Cc1ccc(O)cc1)C(=O)N[C@@H](Cc1ccc(O)cc1)C(=O)N[C@@H](CC(N)=O)C(=O)N[C@@H](Cc1c[nH]c2ccccc12)C(=O)N[C@@H](CC(C)C)C(=O)N[C@H](C(=O)N[C@@H](CCCNC(=N)N)C(=O)N[C@@H](CCC(N)=O)C(=O)N[C@@H](CCCNC(=N)N)C(=O)N[C@@H](Cc1ccc(O)cc1)C(N)=O)[C@@H](C)O)C(C)C)[C@@H](C)O
B6: Compound 33 (peptide)
peptide: Isovaleryl-APAK([Ahx-γGlu-C18 diacid])PEEDAEPEELQRYYISLRHYYNWLTRQRY-NH2
SMILES: CC[C@H](C)[C@H](NC(=O)[C@H](Cc1ccc(O)cc1)NC(=O)[C@H](Cc1ccc(O)cc1)NC(=O)[C@H](CCCNC(=N)N)NC(=O)[C@H](CCC(N)=O)NC(=O)[C@H](CC(C)C)NC(=O)[C@H](CCC(=O)O)NC(=O)[C@H](CCC(=O)O)NC(=O)[C@@H]1CCCN1C(=O)[C@H](CCC(=O)O)NC(=O)[C@H](C)NC(=O)[C@H](CC(=O)O)NC(=O)[C@H](CCC(=O)O)NC(=O)[C@H](CCC(=O)O)NC(=O)[C@@H]1CCCN1C(=O)[C@H](CCCCNC(=O)CCCCCNC(=O)CC[C@H](NC(=O)CCCCCCCCCCCCCCCCC(=O)O)C(=O)O)NC(=O)[C@H](C)NC(=O)[C@@H]1CCCN1C(=O)[C@H](C)NC(=O)CC(C)C)C(=O)N[C@@H](CO)C(=O)N[C@@H](CC(C)C)C(=O)N[C@@H](CCCNC(=N)N)C(=O)N[C@@H](Cc1c[nH]cn1)C(=O)N[C@@H](Cc1ccc(O)cc1)C(=O)N[C@@H](Cc1ccc(O)cc1)C(=O)N[C@@H](CC(N)=O)C(=O)N[C@@H](Cc1c[nH]c2ccccc12)C(=O)N[C@@H](CC(C)C)C(=O)N[C@H](C(=O)N[C@@H](CCCNC(=N)N)C(=O)N[C@@H](CCC(N)=O)C(=O)N[C@@H](CCCNC(=N)N)C(=O)N[C@@H](Cc1ccc(O)cc1)C(N)=O)[C@@H](C)O

Molecular target: T1, human NPY2 receptor
Experiment: RLB: displacement of 125I-PYY(1-36) from hNPY2R membranes

| Ki | Binder |
| --- | --- |
| 0.3 nM | B1 |
| 13.6 nM | B2 |
| 34.7 nM | B3 |
| 3.53 nM | B4 |
| 1.4 nM | B5 |
| 2.53 nM | B6 |

— patent publication US20260015399A1 (Boehringer Ingelheim, published 2026)
